The values below come from article PMC12361444.

This assay concerns the target HAdV-C5 hexon protein (human adenovirus C5) (UniProt P04133).
UniProt P04133, sequence (P04133 whole entry): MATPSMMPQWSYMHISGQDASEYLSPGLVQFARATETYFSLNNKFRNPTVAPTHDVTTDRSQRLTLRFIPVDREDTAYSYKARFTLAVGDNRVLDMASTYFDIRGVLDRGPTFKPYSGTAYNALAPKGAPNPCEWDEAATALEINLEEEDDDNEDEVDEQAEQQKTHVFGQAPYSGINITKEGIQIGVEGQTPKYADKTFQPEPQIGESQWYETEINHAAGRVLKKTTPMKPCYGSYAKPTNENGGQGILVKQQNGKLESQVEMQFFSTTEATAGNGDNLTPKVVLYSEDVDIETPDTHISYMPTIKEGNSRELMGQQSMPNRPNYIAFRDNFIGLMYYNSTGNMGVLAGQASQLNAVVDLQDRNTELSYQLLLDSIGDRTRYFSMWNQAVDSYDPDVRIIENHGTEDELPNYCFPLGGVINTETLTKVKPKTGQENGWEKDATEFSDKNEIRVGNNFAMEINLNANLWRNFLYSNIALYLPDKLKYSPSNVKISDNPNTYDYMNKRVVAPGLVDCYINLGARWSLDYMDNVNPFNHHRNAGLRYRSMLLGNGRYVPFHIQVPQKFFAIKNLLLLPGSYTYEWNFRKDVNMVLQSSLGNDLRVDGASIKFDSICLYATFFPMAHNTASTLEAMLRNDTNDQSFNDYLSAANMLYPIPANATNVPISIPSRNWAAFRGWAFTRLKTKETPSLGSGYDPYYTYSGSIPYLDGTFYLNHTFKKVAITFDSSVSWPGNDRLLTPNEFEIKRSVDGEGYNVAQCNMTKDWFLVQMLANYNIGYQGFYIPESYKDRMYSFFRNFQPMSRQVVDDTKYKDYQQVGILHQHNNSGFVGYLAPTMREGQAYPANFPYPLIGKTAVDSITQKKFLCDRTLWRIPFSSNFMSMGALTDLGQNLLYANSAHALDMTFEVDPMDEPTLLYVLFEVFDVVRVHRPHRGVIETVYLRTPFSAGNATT

The substance Human lactoferricin 1-49 (peptide) came in with a qPCR of cell-bound HAdV-C5 genomes on myoblasts (5000 vp/cell, 2 µM Lfcin, on ice 30 min), with versus without Lfcin of 20 fold.
